Measured values: PMC3496615 (Molecular Biology of the Cell, 2012)
Numbering of substitutions follows the chain as printed.

T1: Irc6p (Saccharomyces cerevisiae, UniProt P43615)
T1 sequence (P43615 1-237): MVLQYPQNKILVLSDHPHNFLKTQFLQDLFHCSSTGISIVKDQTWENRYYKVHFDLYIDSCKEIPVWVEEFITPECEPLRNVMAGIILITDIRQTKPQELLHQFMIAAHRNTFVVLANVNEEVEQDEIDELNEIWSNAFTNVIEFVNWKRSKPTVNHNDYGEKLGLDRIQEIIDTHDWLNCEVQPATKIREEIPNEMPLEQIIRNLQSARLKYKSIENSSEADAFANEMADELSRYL

T2: FLAG-tagged Irc6p (recombinant, purified) (yeast (S. cerevisiae), UniProt P43615 1-237)
T2 sequence (looked up): T1 sequence (P43615 1-237)

T3: FLAG-Irc6p-K22A (yeast (S. cerevisiae), UniProt P43615 1-237, K22A)
T3 sequence (looked up): T1 sequence (P43615 1-237) with K22A

B1: GST-Ypt31p (natural protein, yeast (S. cerevisiae), UniProt P38555 1-223, looked up)
chain: MSSEDYGYDYDLLFKIVLIGDSGVGKSNLLSRFTKNEFNMDSKSTIGVEFATRTLEIDGKRIKAQIWDTAGQERYRAITSAYYRGAVGALIVYDISKSSSYENCNHWLSELRENADDNVAVGLIGNKSDLAHLRAVPTEESKTFAQENQLLFTETSALNSENVDKAFEELINTIYQKVSKHQMDLGDSSANGNANGASAPNGPTISLTPTPNENKKANGNNCC
B2: FLAG-Irc6pΔC (Irc6p N-terminal region) (domain or fragment, yeast (S. cerevisiae), UniProt P43615 1-179, looked up)
chain: MVLQYPQNKILVLSDHPHNFLKTQFLQDLFHCSSTGISIVKDQTWENRYYKVHFDLYIDSCKEIPVWVEEFITPECEPLRNVMAGIILITDIRQTKPQELLHQFMIAAHRNTFVVLANVNEEVEQDEIDELNEIWSNAFTNVIEFVNWKRSKPTVNHNDYGEKLGLDRIQEIIDTHDWL
B3: FLAG-Irc6pCT (Irc6p C-terminal region) (domain or fragment, yeast (S. cerevisiae), UniProt P43615 179-237, looked up)
chain: LNCEVQPATKIREEIPNEMPLEQIIRNLQSARLKYKSIENSSEADAFANEMADELSRYL

Assays:
Irc6p = molecular target: T1, Irc6p; assay: limited proteolysis; type: binding; conditions: pH 8, 10 mM CaCl2, 24°C; indirect evidence
[1] = molecular target: T2, FLAG-tagged Irc6p (recombinant, …); assay: pull-down
FLAG-Irc6p-K22A = molecular target: T3, FLAG-Irc6p-K22A; assay: pull-down
GST-Ypt31p = molecular target: B1; assay: pull-down

## Nc1nc2c(ncn2[C@@H]2O[C@H](COP(=O)(O)OP(=O)(O)NP(=O)(O)O)[C@@H](O)[C@H]2O)c(=O)[nH]1 [GMPPNP]
Irc6p
  limited proteolysis (chymotrypsin), protection: by limited proteolysis was slowed in the presence of GMPPNP (Figure S2B)

## B1
[1]
  binding result: binds
FLAG-Irc6p-K22A
  binding result: binds

## B2
GST-Ypt31p
  binding result: binds

## B3
GST-Ypt31p
  binding result: binds
